The target of this test is FAP (human, UniProt Q12884). Nature of the test: FACS, HT1080 FAP+ cells. (In flow cytometry, cells or beads pass a laser one at a time.)
Chain of FAP (Q12884 26-760): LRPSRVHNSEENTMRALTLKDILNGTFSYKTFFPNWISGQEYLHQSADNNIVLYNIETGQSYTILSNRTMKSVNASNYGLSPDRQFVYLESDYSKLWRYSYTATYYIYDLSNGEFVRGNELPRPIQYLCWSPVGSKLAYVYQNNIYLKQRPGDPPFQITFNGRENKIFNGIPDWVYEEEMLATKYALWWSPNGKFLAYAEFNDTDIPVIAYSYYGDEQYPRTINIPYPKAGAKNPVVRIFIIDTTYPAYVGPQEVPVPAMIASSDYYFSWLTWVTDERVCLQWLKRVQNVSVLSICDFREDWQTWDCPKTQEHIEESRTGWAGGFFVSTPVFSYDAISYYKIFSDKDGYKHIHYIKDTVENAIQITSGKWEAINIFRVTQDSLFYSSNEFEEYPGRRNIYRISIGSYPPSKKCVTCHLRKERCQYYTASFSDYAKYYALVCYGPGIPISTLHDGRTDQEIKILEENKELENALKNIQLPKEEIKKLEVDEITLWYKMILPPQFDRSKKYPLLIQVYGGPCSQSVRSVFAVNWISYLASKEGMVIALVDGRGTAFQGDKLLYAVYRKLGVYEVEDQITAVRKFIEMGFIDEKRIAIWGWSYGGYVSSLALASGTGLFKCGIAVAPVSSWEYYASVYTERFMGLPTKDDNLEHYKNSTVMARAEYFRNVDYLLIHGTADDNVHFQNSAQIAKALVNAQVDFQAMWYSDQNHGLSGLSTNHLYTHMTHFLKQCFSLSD

B1: Db anti-FAP-Glyco-scTRAIL3-FAVSGAA (antibody)
chain: MDWTWRVFCLLAVAPGAHSLEASDYKDDDDKGTGQVQLVQSGAEVKKPGASVKVSCKASGYTFTENIIHWVRQAPGQGLEWMGWFHPGSGSIKYNEKFKDRVTMTADTSTSTVYMELSSLRSEDTAVYYCARHGGTGRGAMDYWGQGTLVTVSSGGGGSDIQMTQSPSSLSASVGDRVTITCRASKSVSTSAYSYMHWYQQKPGKAPKLLIYLASNLESGVPSRFSGSGSGTDFTLTISSLQPEDFATYYCQHSRELPYTFGQGTKLEIKRAAAGNGTSNGTSEFGGAAAHITGTRGRSNTLSSPNSKNEKALGRKINSWESSRSGHSFLSNLHLRNGELVIHEKGFYYIYSQTYFRFQEEIKENTKNDKQMVQYIYKYTSYPDPILLMKSARNSCWSKDAEYGLYSIYQGGIFELKENDRIFVSVTNEHLIDMDHEASFFGAFAVSGAAAHITGTRGRSNTLSSPNSKNEKALGRKINSWESSRSGHSFLSNLHLRNGELVIHEKGFYYIYSQTYFRFQEEIKENTKNDKQMVQYIYKYTSYPDPILLMKSARNSCWSKDAEYGLYSIYQGGIFELKENDRIFVSVTNEHLIDMDHEASFFGAFAVSGAAAHITGTRGRSNTLSSPNSKNEKALGRKINSWESSRSGHSFLSNLHLRNGELVIHEKGFYYIYSQTYFRFQEEIKENTKNDKQMVQYIYKYTSYPDPILLMKSARNSCWSKDAEYGLYSIYQGGIFELKENDRIFVSVTNEHLIDMDHEASFFGAFAVS
One may read the EC50 as the midpoint of the concentration-response curve. A lower EC50 goes with greater potency. Turning to B1, the EC50 was 14 nM.
